# Test results from patent US20180155451A1 (published 2018).
# B1: GpH7-B3 variant K334_01G/GpL16-k0 (antibody, human IgG1, kappa)
# heavy: not shown
# light: DIVMTQSPLSLPVTPGEPASISCQASESLVHSNRNTYLHWYLQKPGQSPQLLIYKVSNRFSGVPDRFSGSGSGTDFTLKISRVEAEDVGVYYCSQNTHVPPTFGQGTKVEIERTVAAPSVFIFPPSDEQLKSGTASVVCLLNNFYPREAKVQWKVDNALQSGNSQESVTEQDSKDSTYSLSSTLTLSKADYEKHKVYACEVTHQGLSSPVTKSFNRGEC
# notes: homodimerized IgG1, mutation in both H chains; also called Ho Ab
# B2: GpH7-B3 variant I336_13S/GpL16-k0 (antibody, human IgG1, kappa)
# heavy: not shown
# light: B1 light
# notes: as for B1
# B3: GpH7-B3 variant I336_03V/GpL16-k0 (antibody, human IgG1, kappa)
# heavy: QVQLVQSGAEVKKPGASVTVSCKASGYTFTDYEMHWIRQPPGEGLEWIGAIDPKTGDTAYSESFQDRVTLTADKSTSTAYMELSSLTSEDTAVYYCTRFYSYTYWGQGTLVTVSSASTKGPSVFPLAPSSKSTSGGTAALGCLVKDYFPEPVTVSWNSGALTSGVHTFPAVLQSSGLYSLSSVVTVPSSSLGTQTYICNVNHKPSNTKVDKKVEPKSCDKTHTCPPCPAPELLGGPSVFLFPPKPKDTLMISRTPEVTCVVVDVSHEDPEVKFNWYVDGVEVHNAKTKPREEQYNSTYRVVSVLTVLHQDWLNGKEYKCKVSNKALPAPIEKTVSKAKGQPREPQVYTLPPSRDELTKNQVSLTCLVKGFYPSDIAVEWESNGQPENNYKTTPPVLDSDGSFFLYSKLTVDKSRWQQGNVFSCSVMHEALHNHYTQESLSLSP
# light: B1 light
# notes: as for B1
# B4: GpH7-B3 variant K326_19Q/GpL16-k0 (antibody, human IgG1, kappa)
# heavy: not shown
# light: B1 light
# notes: as for B1
# B5: GpH7-B3 variant I332_15Y/GpL16-k0 (antibody, human IgG1, kappa)
# heavy: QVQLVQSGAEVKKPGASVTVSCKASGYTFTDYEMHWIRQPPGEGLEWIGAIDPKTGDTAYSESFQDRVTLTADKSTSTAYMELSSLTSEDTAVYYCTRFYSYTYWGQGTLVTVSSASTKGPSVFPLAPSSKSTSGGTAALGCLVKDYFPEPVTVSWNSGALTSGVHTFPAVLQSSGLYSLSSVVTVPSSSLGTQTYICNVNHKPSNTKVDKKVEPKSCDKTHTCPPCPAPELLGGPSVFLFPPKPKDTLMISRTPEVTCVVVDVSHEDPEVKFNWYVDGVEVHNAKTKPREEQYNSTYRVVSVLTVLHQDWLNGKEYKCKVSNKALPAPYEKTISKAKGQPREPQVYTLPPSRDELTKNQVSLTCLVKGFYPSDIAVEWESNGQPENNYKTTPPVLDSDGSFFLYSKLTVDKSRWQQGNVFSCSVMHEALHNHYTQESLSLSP
# light: B1 light
# notes: as for B1
# B6: GpH7-B3 variant A330_20W/GpL16-k0 (antibody, human IgG1, kappa)
# heavy: not shown
# light: B1 light
# notes: as for B1
# B7: GpH7-B3 variant E333_16H/GpL16-k0 (antibody, human IgG1, kappa)
# heavy: not shown
# light: B1 light
# notes: as for B1
# B8: GpH7-B3 variant K326_08L/GpL16-k0 (antibody, human IgG1, kappa)
# heavy: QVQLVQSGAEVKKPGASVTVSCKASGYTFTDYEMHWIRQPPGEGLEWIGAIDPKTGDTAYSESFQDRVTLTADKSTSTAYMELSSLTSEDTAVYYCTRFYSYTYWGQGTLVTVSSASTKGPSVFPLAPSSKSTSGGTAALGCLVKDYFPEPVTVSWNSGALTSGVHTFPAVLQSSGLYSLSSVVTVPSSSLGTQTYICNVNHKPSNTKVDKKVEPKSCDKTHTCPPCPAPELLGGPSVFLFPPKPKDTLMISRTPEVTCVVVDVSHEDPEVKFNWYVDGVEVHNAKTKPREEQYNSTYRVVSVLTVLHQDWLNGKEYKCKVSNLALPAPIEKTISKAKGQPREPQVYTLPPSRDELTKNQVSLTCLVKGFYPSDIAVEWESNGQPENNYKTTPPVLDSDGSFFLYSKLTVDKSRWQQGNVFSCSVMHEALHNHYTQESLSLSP
# light: B1 light
# notes: as for B1
# B9: GpH7-B3 variant K326_10E/GpL16-k0 (antibody, human IgG1, kappa)
# heavy: not shown
# light: B1 light
# notes: as for B1
# B10: GpH7-B3 variant I332_19Q/GpL16-k0 (antibody, human IgG1, kappa)
# heavy: not shown
# light: B1 light
# notes: as for B1
# B11: GpH7-B3 variant I332_02A/GpL16-k0 (antibody, human IgG1, kappa)
# heavy: not shown
# light: B1 light
# notes: as for B1
# B12: GpH7-B3 variant K326_04F/GpL16-k0 (antibody, human IgG1, kappa)
# heavy: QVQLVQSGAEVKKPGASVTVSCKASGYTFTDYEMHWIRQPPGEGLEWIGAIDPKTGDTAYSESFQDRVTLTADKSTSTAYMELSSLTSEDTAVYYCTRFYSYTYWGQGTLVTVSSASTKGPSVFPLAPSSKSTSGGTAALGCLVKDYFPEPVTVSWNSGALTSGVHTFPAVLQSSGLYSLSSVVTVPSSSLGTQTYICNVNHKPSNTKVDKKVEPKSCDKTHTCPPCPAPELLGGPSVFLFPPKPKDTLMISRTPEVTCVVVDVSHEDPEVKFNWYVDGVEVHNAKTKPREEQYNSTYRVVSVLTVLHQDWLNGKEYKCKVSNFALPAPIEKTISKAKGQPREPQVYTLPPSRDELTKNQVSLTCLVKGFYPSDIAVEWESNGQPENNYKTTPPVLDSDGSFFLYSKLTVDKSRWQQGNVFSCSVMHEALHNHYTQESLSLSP
# light: B1 light
# notes: as for B1
# B13: GpH7-B3 variant H268_13S/GpL16-k0 (antibody, human IgG1, kappa)
# heavy: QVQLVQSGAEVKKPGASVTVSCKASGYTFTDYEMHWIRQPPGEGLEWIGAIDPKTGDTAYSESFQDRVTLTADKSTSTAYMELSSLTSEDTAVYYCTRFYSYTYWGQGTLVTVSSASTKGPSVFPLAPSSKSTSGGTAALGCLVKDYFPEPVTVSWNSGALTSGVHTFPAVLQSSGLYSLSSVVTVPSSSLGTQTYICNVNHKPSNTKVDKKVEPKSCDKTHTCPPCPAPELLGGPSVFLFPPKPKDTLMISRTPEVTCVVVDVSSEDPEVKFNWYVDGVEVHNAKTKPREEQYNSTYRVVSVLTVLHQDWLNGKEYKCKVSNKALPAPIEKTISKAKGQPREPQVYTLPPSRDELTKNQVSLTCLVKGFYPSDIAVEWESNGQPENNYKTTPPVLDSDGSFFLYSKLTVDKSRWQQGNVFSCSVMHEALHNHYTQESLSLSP
# light: B1 light
# notes: as for B1
# B14: GpH7-B3 variant I332_01G/GpL16-k0 (antibody, human IgG1, kappa)
# heavy: not shown
# light: B1 light
# notes: as for B1
# B15: GpH7-B3 variant I336_18N/GpL16-k0 (antibody, human IgG1, kappa)
# heavy: not shown
# light: B1 light
# notes: as for B1
# B16: GpH7-B3 variant K334_02A/GpL16-k0 (antibody, human IgG1, kappa)
# heavy: not shown
# light: B1 light
# notes: as for B1
# B17: GpH7-B3 variant H268_10E/GpL16-k0 (antibody, human IgG1, kappa)
# heavy: not shown
# light: B1 light
# notes: as for B1
# B18: GpH7-B3 variant I336_02A/GpL16-k0 (antibody, human IgG1, kappa)
# heavy: not shown
# light: B1 light
# notes: as for B1
# B19: GpH7-B3 variant I336_06M/GpL16-k0 (antibody, human IgG1, kappa)
# heavy: not shown
# light: B1 light
# notes: as for B1
# B20: GpH7-B3 variant I332_09D/GpL16-k0 (antibody, human IgG1, kappa)
# heavy: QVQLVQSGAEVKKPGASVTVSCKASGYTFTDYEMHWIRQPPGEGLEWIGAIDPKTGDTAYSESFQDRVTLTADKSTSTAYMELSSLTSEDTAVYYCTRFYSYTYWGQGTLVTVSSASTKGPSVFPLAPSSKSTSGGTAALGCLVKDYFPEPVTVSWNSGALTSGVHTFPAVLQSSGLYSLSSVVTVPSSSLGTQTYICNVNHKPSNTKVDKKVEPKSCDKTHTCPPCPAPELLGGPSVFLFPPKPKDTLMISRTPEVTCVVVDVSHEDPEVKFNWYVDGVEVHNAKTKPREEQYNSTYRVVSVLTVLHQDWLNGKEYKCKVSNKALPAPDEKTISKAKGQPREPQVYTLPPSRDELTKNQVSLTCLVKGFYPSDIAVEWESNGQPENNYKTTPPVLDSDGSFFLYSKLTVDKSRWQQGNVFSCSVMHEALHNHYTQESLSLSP
# light: B1 light
# notes: as for B1
# B21: GpH7-B3 variant K326_07I/GpL16-k0 (antibody, human IgG1, kappa)
# heavy: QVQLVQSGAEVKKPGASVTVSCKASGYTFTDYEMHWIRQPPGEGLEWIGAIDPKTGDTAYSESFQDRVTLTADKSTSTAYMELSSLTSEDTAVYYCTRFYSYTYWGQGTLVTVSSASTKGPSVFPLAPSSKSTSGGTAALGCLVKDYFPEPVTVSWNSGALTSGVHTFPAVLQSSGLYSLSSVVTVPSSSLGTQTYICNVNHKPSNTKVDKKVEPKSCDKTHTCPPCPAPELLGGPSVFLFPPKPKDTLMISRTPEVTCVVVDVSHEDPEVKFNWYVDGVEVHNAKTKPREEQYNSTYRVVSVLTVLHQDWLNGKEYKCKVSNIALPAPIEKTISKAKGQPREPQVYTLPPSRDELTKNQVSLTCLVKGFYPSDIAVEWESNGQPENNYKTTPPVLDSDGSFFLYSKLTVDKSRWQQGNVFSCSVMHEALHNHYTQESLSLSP
# light: B1 light
# notes: as for B1
# B22: GpH7-B3 variant I332_13S/GpL16-k0 (antibody, human IgG1, kappa)
# heavy: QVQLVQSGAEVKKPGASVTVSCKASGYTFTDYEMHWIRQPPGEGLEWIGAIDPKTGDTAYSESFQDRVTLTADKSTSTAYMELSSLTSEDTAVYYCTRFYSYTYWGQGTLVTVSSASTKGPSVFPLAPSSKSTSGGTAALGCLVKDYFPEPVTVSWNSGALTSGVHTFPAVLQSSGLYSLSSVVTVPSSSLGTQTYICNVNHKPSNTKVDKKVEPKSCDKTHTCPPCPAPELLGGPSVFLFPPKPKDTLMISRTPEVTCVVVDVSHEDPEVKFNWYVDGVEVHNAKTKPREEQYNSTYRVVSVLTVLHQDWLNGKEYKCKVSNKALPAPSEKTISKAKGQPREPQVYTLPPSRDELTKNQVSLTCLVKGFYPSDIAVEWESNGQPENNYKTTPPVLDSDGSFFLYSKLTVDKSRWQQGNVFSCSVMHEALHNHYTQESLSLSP
# light: B1 light
# notes: as for B1
# B23: GpH7-B3 variant K326_14T/GpL16-k0 (antibody, human IgG1, kappa)
# heavy: not shown
# light: B1 light
# notes: as for B1
# B24: GpH7-B3 variant K326_15Y/GpL16-k0 (antibody, human IgG1, kappa)
# heavy: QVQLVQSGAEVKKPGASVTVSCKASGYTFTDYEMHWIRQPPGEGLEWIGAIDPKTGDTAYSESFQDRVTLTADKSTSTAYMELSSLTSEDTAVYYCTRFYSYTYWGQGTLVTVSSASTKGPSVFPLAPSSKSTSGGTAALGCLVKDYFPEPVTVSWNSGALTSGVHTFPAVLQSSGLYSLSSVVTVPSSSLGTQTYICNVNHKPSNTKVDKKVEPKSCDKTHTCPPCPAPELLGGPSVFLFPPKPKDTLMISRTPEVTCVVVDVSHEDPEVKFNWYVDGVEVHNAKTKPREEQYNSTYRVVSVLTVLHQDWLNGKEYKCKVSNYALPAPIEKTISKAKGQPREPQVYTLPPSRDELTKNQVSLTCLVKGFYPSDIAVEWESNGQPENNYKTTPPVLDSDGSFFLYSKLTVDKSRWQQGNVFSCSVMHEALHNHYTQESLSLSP
# light: B1 light
# notes: as for B1
# B25: GpH7-B3 variant H268_09D/GpL16-k0 (antibody, human IgG1, kappa)
# heavy: not shown
# light: B1 light
# notes: as for B1
# B26: GpH7-B3 variant A330_04F/GpL16-k0 (antibody, human IgG1, kappa)
# heavy: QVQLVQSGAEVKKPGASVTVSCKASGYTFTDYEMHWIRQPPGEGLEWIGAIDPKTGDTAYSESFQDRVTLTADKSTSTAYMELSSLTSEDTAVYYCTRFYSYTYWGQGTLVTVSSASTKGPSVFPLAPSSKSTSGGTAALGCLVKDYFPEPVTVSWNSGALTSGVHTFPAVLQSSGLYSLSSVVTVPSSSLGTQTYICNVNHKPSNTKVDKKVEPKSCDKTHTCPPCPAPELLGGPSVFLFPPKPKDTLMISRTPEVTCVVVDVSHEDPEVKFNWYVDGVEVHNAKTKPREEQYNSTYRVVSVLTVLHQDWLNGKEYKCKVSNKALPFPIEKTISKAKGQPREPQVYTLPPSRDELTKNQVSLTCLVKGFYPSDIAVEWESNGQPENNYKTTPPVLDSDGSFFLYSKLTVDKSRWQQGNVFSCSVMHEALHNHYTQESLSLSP
# light: B1 light
# notes: as for B1
# B27: GpH7-B3 variant I332_14T/GpL16-k0 (antibody, human IgG1, kappa)
# heavy: not shown
# light: B1 light
# notes: as for B1
# B28: GpH7-B3 variant I336_14T/GpL16-k0 (antibody, human IgG1, kappa)
# heavy: not shown
# light: B1 light
# notes: as for B1
# Target: T1, FcγRIIIa extracellular domain with C-terminal His tag (human, UniProt P08637 17-208)
# T1 construct: extracellular domain; also called FcgRIIIa; 3a
# T1 sequence (P08637 17-208): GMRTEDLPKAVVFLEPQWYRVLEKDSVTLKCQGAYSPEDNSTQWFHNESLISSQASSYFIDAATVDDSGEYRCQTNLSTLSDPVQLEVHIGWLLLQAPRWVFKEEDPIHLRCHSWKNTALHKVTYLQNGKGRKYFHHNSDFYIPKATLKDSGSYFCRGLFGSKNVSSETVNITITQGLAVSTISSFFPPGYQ
# Assay: SPR, relative to GpH7-B3/GpL16-k0
row,Ho/Con_3a,Binder
1,104 % of control (=100),B1
2,119 % of control (=100),B2
3,110 % of control (=100),B3
4,118 % of control (=100),B4
5,106 % of control (=100),B5
6,118 % of control (=100),B6
7,111 % of control (=100),B7
8,114 % of control (=100),B8
9,157 % of control (=100),B9
10,118 % of control (=100),B10
11,114 % of control (=100),B11
12,103 % of control (=100),B12
13,130 % of control (=100),B13
14,104 % of control (=100),B14
15,101 % of control (=100),B15
16,154 % of control (=100),B16
17,2060 % of control (=100),B17
18,104 % of control (=100),B18
19,107 % of control (=100),B19
20,255 % of control (=100),B20
21,134 % of control (=100),B21
22,112 % of control (=100),B22
23,147 % of control (=100),B23
24,115 % of control (=100),B24
25,220 % of control (=100),B25
26,174 % of control (=100),B26
27,138 % of control (=100),B27
28,123 % of control (=100),B28
